In US20220340678A1 (MURAL ONCOLOGY, published 2022):

T1: IL-12 p40 C177S variant (human, UniProt P29460 23-328)
T1 sequence: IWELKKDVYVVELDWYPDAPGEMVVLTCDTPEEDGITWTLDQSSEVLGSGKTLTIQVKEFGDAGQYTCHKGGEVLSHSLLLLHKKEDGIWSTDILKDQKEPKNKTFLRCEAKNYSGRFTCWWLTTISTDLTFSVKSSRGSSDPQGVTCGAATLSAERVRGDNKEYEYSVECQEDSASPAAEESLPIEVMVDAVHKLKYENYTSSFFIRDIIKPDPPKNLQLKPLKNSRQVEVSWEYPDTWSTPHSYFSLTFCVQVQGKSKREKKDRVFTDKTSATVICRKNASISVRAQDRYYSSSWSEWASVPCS

T2: IL-12 p40 C177F variant (human, UniProt P29460 23-328)
T2 sequence: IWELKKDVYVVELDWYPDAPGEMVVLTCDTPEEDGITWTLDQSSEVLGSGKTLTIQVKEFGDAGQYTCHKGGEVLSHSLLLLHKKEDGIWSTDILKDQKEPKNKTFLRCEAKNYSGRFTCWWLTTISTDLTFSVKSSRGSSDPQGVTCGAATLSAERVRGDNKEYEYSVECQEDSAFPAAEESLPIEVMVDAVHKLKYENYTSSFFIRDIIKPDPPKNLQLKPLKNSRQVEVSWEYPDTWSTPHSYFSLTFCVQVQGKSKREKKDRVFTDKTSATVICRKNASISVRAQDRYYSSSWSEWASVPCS


Key:
[1] = molecular target: T1, IL-12 p40 C177S variant; test: BLI (Octet), p35 C74 variant against p40 C177S
[2] = molecular target: T2, IL-12 p40 C177F variant; test: BLI (Octet), p35 C74 variant against p40 C177F
[3] = molecular target: Recombinant human uPAR his (R&D Systems, 807-UK-100/CF) (human, UniProt Q03405 23-303, biotinylated (sites not given)); test: SPR (Biacore), biotinylated human uPAR his on streptavidin chip

| Kd [1] [nM] | koff [1] [s⁻¹] | kon [1] [M⁻¹ s⁻¹] | Kd [2] [nM] | koff [2] [s⁻¹] | kon [2] [M⁻¹ s⁻¹] | Kd [3] [nM] | koff [3] [s⁻¹] | kon [3] [M⁻¹ s⁻¹] | Binder |
| --- | --- | --- | --- | --- | --- | --- | --- | --- | --- |
| 27 | 0.000432 | 16000 | 25.4 | 0.000291 | 11500 |  |  |  | IL-12 p35 C74W variant (other) RNLPVATPDPGMFPCLHHSQNLLRAVSNMLQKARQTLEFYPCTSEEIDHEDITKDKTSTVEACLPLELTKNESWLNSRETSFITNGSCLASRKTSFMMALCLSSIYEDLKMYQVEFKTMNAKLLMDPKRQIFLDQNMLAVIDELMQALNFNSETVPQKSSLEEPDFYKTKIKLCILLHAFRIRAVTIDRVMSYLNAS |
| 23.2 | 0.000411 | 17700 | 23.8 | 0.000298 | 12500 |  |  |  | IL-12 p35 C74Y variant (other) RNLPVATPDPGMFPCLHHSQNLLRAVSNMLQKARQTLEFYPCTSEEIDHEDITKDKTSTVEACLPLELTKNESYLNSRETSFITNGSCLASRKTSFMMALCLSSIYEDLKMYQVEFKTMNAKLLMDPKRQIFLDQNMLAVIDELMQALNFNSETVPQKSSLEEPDFYKTKIKLCILLHAFRIRAVTIDRVMSYLNAS |
|  |  |  |  |  |  | 2.2 | 0.001 | 460000 | Human uPA-ATF:Human cpIL-2:IL-2Ra:His6 (other, also called 98) SNELHQVPSNCDCLNGGTCVSNKYFSNIHWCNCPKKFGGQHCEIDKSKTCYEGNGHFYRGKASTDTMGRPCLPWNSATVLQQTYHAHRSDALQLGLGKHNYCRNPDNRRRPWCYVQVGLKPLVQECMVHDCAGGSGGSKNFHLRPRDLISNINVIVLELKGSETTFMCEYADETATIVEFLNRWITFSQSIISTLTGGSSSTKKTQLQLEHLLLDLQMILNGINNYKNPKLTRMLTFKFYMPKKATELKHLQCLEEELKPLEEVLNLAQGSGGGSELCDDDPPEIPHATFKAMAYKEGTMLNCECKRGFRRIKSGSLYMLCTGNSSHSSWDNQCQCTSSATRNTTKQVTPQPEEQKERKTTEMQSPMQPVDQASLPGHCREPPPWENEATERIYHFVVGQMVYYQCVQGYRALHRGPAESVCKMTHGKTRWTQPQLICTGHHHHHH |
